Several values for one entry are separate records, joined by “and”; a condition that tells them apart may be missing. Equal values may be shown once. Read-outs that look alike come from different tables or passages of the source.
Tests used:
Test in all cases: SPR
[1] = target: T1, isolated CNBH domain of mouse EAG1 (mEAG1) channels, residues 552-708 (mouse, UniProt Q60603 552-708)
T1 sequence (looked up): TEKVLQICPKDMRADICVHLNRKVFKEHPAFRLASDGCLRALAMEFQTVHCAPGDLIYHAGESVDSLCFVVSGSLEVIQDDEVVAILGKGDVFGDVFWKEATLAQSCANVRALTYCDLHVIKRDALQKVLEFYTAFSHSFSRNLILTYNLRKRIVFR

[2] = target: T1, isolated CNBH domain of mouse EAG1 …; remark: listed apart in the source
[3] = target: T1, isolated CNBH domain of mouse EAG1 …; remark: listed apart in the source
[4] = target: T1, isolated CNBH domain of mouse EAG1 …; remark: listed apart in the source

B1: isolated PAS domain of mouse EAG1 (mEAG1) channels, residues 7-136 (domain or fragment, UniProt Q60603 7-136, looked up)
chain: RRGLVAPQNTFLENIVRRSNDTNFVLGNAQIVDWPIVYSNDGFCKLSGYHRAEVMQKSSACSFMYGELTDKDTVEKVRQTFENYEMNSFEILMYKKNRTPVWFFVKIAPIRNEQDKVVLFLCTFSDITAF
Kd [1]: 0.9 µM and 0.5 µM | Kd [2]: 1.8 µM | Kd [3]: 2.5 µM and 2.9 µM | Kd [4]: 1.6 µM

From publication doi:10.1101/2024.02.23.581826 (bioRxiv, 2024)
